Assay results taken from the DeepSol protein solubility set.

Assay: soluble on expression in E. coli; label from the status in PepcDB or PDB records

| Sequence | soluble on expression in E. coli |
| --- | --- |
| MNIFDHYRQRYEAAKDEEFTLQEFLTTCRQDRSAYANAAERLLMAIGEPVMVDTAQEPRLSRLFSNRVIARYPAFEEFYGMEDAIEQIVSYLKHAAQGLEEKKQILYLLGPVGGGKSSLAERLKSLMQLVPIYVLSANGERSPVNDHPFCLFNPQEDAQILEKEYGIPRRYLGTIMSPWAAKRLHEFGGDITKFRVVKVWPSILQQIAIAKTEPGDENNQDISALVGKVDIRKLEHYAQNDPDAYGYSGALCRANQGIMEFVEMFKAPIKVLHPLLTATQEGNYNGTEGISALPFNGIILAHSNESEWVTFRNNKNNEAFLDRVYIVKVPYCLRISEEIKIYEKLLNHSELTHAPCAPGTLETLSRFSILSRLKEPENSSIYSKMRVYDGESLKDTDPKAKSYQEYRDYAGVDEGMNGLSTRFAFKILSRVFNFDHVEVAANPVHLFYVLEQQIEREQFPQEQAERYLEFLKGYLIPKYAEFIGKEIQTAYLESYSEYGQNIFDRYVTYADFWIQDQEYRDPDTGQLFDRESLNAELEKIEKPAGISNPKDFRNEIVNFVLRARANNSGRNPNWTSYEKLRTVIEKKMFSNTEELLPVISFNAKTSTDEQKKHDDFVDRMMEKGYTRKQVRLLCEWYLRVRKSS | soluble |
| MNIISEHGFRIDGRRPAQIRNINTRLGLNRNAEGSCYLEHGNTKVLCAVYGPYEGKSSKRIEDKCAIVCQYSATKFSGLERKNRTRGDRKSTEISRLLEKAFESVILTEAFPRSQLDIFCEVIQGDGSNLAACVNATSLALADAGIPMKGIASAATCGVVDGKPIVDLTSREETDLLPRVTLATICGRDEVILVELQNRLHIDHLSTVMDAAKATCADVYECLAVVAQQHLKACAPILGN | not soluble |
| MNILQEPIDFLKKEELKNIDLSQMSKKERYKIWKRIPKCELHCHLDLCFSADFFVSCIRKYNLQPNLSDEEVLDYYLFAKGGKSLGEFVEKAIKVADIFHDYEVIEDLAKHAVFNKYKEGVVLMEFRYSPTFVAFKYNLDIELIHQAIVKGIKEVVELLDHKIHVALMCIGDTGHEAANIKASADFCLKHKADFVGFDHGGHEVDLKEYKEIFDYVRESGVPLSVHAGEDVTLPNLNTLYSAIQVLKVERIGHGIRVAESQELIDMVKEKNILLEVCPISNVLLKNAKSMDTHPIRQLYDAGVKVSVNSDDPGMFLTNINDDYEELYTHLNFTLEDFMKMNEWALEKSFMDSNIKDKIKNLYFKGEFEAYV | soluble |
| MNINILLSTYNGERFLAEQIQSIQRQTVNDWTLLIRDDGSTDGTQDIIRTFVKEDKRIQWINEGQTENLGVIKNFYTLLKHQKADVYFFSDQDDIWLDNKLEVTLLEAQKHEMTAPLLVYTDLKVVTQHLAVCHDSMIKTQSGHANTSLLQELTENTVTGGTMMITHALAEEWTTCDGLLMHDWYLALLASAIGKLVYLDIPTELYRQHDANVLGARTWSKRMKNWLTPHHLVNKYWWLITSSQKQAQLLLDLPLKPNDHELVTAYVSLLDMPFTKRLATLKRYGFRKNRIFHTFIFRSLVVTLFGYRRK | not soluble |
| MNINLSVPYAAEGPGPTINTLGQVDGEDVVSISSADLDETEGNLNMTTVSVRSGMTLSQVISRWLFTDDTIVPIEQVFPPGQSTEEVEESNRTAFISSESSATIAAMNYLNIPVEVEVAEVLTDSAATGIFEPGDKLLSIDGTAISTPGDAQTIVRSKAPGDEITISYERNDAESQATITLREHPDDSSVALLGISMLSVPSSAIEVDYNLEDIGGPSAGMMFSLAVVDKLSPGALNGGKFVAGTGTIAEDGSVGPIGGIAHKVRAAEDAGAEVFLSPADNCAEAMSAKPQDMTILKVDSLSQAIDQMAAYNEGLEHHHHHH | soluble |
| MNKEEQYLLFALSAPMEILNQGCKPAHDSPKMYTGIKEFELSSSWGINNRDDLIQTIYQMTDDGHANDLAGLYLTWHRSSPEEWKALIAGGSERGLIYTQFVAQTAMCCGEGGIKAWDYVRMGFLSRVGVLNKWLTEEESLWLQSRVYVRAHHYYHSWMHYFSAYSLGRLYWQSSQCEDNTSLREALTLYKYDSAGSRMFEELAAGSDRFYATLPWQPLTVQSECPVTLKDVSDL | soluble |
| MNKEQLQQMRQAPGFVGALDQSGGSTPKALKAYGIQPDAYQSEEEMFDLIHQMRTRMITSPAFATGKIIGVILFERTMRGKIEGMPTADFLWEKRHIVPFLKVDKGLQDEANGVQLMKPFPELGKLCEEAVGYHVFGTKMRSVIKQANEQGIRDIVEQQFQWGKEILSHGLVPILEPEVDIHCPEKAKAEEILKRELLAQLDKMTEPVMLKITIPTVDNFYKEIIEHPMMLRVVALSGGYSREQANELLSRNHGVIASFSRALVEGLSARQTDAEFNAMLEASIEDVYQASIK | soluble |
| MNKFLFAAALIVSGLLVGCNQLTQYTITEQEINQSLAKHNNFSKDIGLPGVADAHIVLTNLTSQIGREEPNKVTLTGDANLDMNSLFGSQKATMKLKLKALPVFDKEKGAIFLKEMEVVDATVQPEKMQTVMQTLLPYLNQALRNYFNQQPAYVLREDGSQGEAMAKKLAKGIEVKPGEIVIPFTD | not soluble |
| MNKIIKYIGASAVVCMMAGCTTNFEDFNTNPYQPSKVPASNLLSTMFNVYACPQQNACQEINCMWASFSGQVTATANWSFGKNIFAYYNASEGHNDSSWGRLYGYIYPSFFLVENSTEKKGVIYAMAQLTRVYGMQLLASLQGPIPYTQMKAGETEAPYDNEQTVWHAMFDDLDNAITILKSAATFGVNQDLAVVDQFYKGDCSKWLKFANTLKLRMAIRISGVEPEYAQTKAQEAVLGGVMESVGDSSYDTTNGGINENGYAIVSGWPEVRANACLVSYMNGYNDPRRPAYFTPQTQTAAGGYVGVRSGSAEIPEPTVYANYSKLFIATDKTLPQPVMYAAEAAFLRAEGALKGWNMGGDAKTFYEKGVRLSFEEFGVSGADDYLADATSIPGNYVDNLIAGHTGNNYTNQSSITIKWEDGADDAKKLERVLTQKWIACYPDPMNGWADFRRTGYPRIFPATESMNADCNTGRGQRRLRFTRSEYNNNKANVEAAVSMLSNGKDSNGTDLWWAMKENGTY | not soluble |
| MNKNIDTVREIITVASILIKFSREDIVENRANFIAFLNEIGVTHEGRKLNQNSFRKIVSELTQEDKKTLIDEFNEGFEGVYRYLEMYTNK | soluble |
| MNKPENFEEAIEIKRDPEDFSVEEIADIEPDPNGKYTIIKARVRDWDTNRIAAEIARRLHMSRKRVTFAGTKDKRAVKLQYFCINSADVDVASLSGIKDFEVIESFKSSHYLTLGDLIANHFKIRFYGIDPEMFRERYVHIISKGGFPNFFGDQRFGSRRRNTHEIGKLIIKGEYEEAVKKYIYDEKYDKESYRKHFIDTLDYKTALERFPHSLSFERSLIGYYARNGTFKGAFDSLPKNLTIMFVHAYQSYLFNRILDERLKIYGLNAVLPGDIAFPVDAYFNPDKSKPIEVNSYNREKISKLVSSDKIRISLPIFGYKTWIDNSDFGDVEYGILKEEGISQDDFKNKDFAYLSSSGDRRIISAKPINFSLENNVVEFTLGKGIYATVFLSSIGRLKENVYSDSEAELLEHHHHHH | soluble |
| MNKTMAKSLSVIIPACNEVDTISDVIQSVRPLNPVEIIVVANGCNDGTEDVADRLGCKVIKHTELLGNDVGRAVGAKHAIGDVLLFIDGDFAIPTSKLKLFLNPILYDQADVVLNNLDALFLKRQKTTSITVWRQILNAMLEREELKMNSLLDVPHALTKEVVQSIGYECFVNPIVAHLRLVQSKWRISRHCAIDVITPNKFRPFQHAAYGTNLSQSEKRMIGDHIEAVAERILSSDERGGYYDGNRKRDSVYHTLSFEEFYQGWGVTSDFYKGKQLSVVIPVQDEEKTIGNVIEELRKIEPFEIIVVVNGSSDKTKKIAKDKGATTIVYKEALGNDVGRSLGTYFAKGEIVLFIDGDFVIPASELYPFAKAIADGTDVALNDLNHYLDLRVPLHLVTAFKYALNLACDRKDLGVGSLIAVPNAFSRKCLKEIGYRSLLAPCVAQVKAILSGFEVACVSRVEVDKMNRIRPSEHFAKIGHPPAVLRIIGDHIEGLDQIIALTDNRGGFYDGNRKRDVLLEHHHHHH | not soluble |
